The values below come from PMC8746429.

Experiment [1] concerns the target digested β-vignin (β-vignin incubated 30 h with the 6 d.a.i. germinating cowpea seed extract): 27 kDa core with the proteolytic products that stay with it (Vigna unguiculata (cowpea)). Nature of the experiment: SEC; Superdex 75 10/300 GL, 25 mM phosphate buffer pH 7.0, 150 mM NaCl; β-vignin digested 30 h with the 6 d.a.i. extract, 50 μg loaded; eluted fractions on SDS-PAGE (silver stained); digest not purified from the extract. For orientation: Size exclusion chromatography separates by hydrodynamic size, large species first.

The target of experiment [2] is native β-vignin, the vicilin (7S globulin) storage protein of cowpea (Vigna unguiculata) seeds (Vigna unguiculata (cowpea)). As to the kind of experiment: SEC; Superdex 75 10/300 GL, 25 mM phosphate buffer pH 7.0, 150 mM NaCl, 0.5 mL/min; peak areas by Multiple Peak Fit; monomer to trimer.
Experiment [3] shares this target. As to the kind of experiment: SEC; Superdex 200 10/300 GL, 25 mM Tris-HCl pH 9.0, 150 mM or 300 mM NaCl; 50 μg β-vignin (0.5 mg/mL) loaded.

In experiment [1], “digested β-vignin (β-vignin incubated 30 h with the 6 d.a.i. germinating cowpea seed extract): 27 kDa core with the proteolytic products that stay with it (complex)” had a percent monomer of 90.2% and a percent trimer of 9.8%.

Usually stoichiometry N stands for a count of units in the complex or per binding partner. Take “native β-vignin, the vicilin (7S globulin) storage protein of cowpea (Vigna unguiculata) seeds (natural protein)”: in experiment [2], the percent monomer stood at 80% and the percent trimer amounted to 20%. Moreover, the stoichiometry N in experiment [3] was found to be 3.
